Measurements from article doi:10.1101/830265, “Relationships between puroindoline-prolamin interactions and wheat grain hardness” (bioRxiv, 2019).

Experiments:
puroindoline A [1] = target: T1, puroindoline A (Triticum aestivum, UniProt P33432 29-148); test: SPR; Biacore X100, CM5 chip; gliadin or (PQQPY)8 covalently immobilised, PINA flowed at 10 uL/min, 25°C, Hepes buffer pH 7.4 (10 mM Hepes, 150 mM NaCl, 3.4 mM EDTA, 0.005% P20); global kinetic fit, 1:1 Langmuir model, KD=kd/ka; conditions: both partners purified
T1 construct: puroindoline A (PINA) of Triticum aestivum, purified from grain of cv; about 13 kDa, five disulfide bonds; matured by cleavages at both N- and C-termini, with forms that differ at the C-terminus; The Pina allele of cv; also called PINA; source: purified from the hard wheat Triticum aestivum cultivar Recital
T1 sequence (looked up): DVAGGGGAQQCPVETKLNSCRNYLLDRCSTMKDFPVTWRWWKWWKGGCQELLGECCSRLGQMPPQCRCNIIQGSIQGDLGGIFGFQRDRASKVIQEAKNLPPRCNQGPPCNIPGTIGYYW

puroindoline A [2] = target: T1, puroindoline A; test: SPR; same sensorgrams as the kinetic fit (immobilised (PQQPY)8, PINA 2 to 20 uM flowed, 25°C, Hepes buffer pH 7.4); steady-state fit, 1:1 Langmuir model; conditions: both partners purified

B1: recombinant polypeptide (PQQPY)8 (peptide)
chain: PQQPYPQQPYPQQPYPQQPYPQQPYPQQPYPQQPYPQQPY
notes: eight repeats of the pentapeptide PQQPY, written out from the printed formula (PQQPY)8; mimics the consensus repeat domain of gliadins; measured mass 4924.5 Da (theoretical 4924.3 Da); Released from thioredoxin-DP-(PQQPY)8 by formic acid; the printed theoretical mass of 4924.3 Da fits the 40 residues of eight repeats with no further residue; also called (Pro-Gln-Gln-Pro-Tyr)8; repetitive domain …
Kd (puroindoline A [1]): 0.29 µM | Kd (puroindoline A [2]): 7.22 µM
